Reference: paper PMC3469465, “Muscle-Specific Splicing Factors ASD-2 and SUP-12 Cooperatively Switch Alternative Pre-mRNA Processing Patterns of the ADF/Cofilin Gene in Caenorhabditis elegans”

Columns and labels:
FLAG-SUP-12 [1] = molecular target: T1, FLAG-SUP-12 (Caenorhabditis elegans, UniProt O45189 1-248); experiment: EMSA; 20 mM HEPES-KOH pH 7.9, 150 mM KCl, 5% glycerol (EMSA only), 1% Triton X-100, 1 mM DTT, 0.1 mM PMSF, 100 ng/ul E. coli tRNA, 50 ng/ul BSA, 30 min, 20 C; details: protein: recombinant; tags: FLAG; label: 32P (alpha-32P UTP, internal)
T1 sequence: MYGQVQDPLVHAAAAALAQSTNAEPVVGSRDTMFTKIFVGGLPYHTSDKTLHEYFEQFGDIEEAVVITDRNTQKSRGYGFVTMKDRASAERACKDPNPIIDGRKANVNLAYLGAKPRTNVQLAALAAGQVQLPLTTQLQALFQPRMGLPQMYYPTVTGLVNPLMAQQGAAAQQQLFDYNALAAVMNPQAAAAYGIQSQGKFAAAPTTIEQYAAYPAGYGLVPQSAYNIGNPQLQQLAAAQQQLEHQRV

FLAG-SUP-12 [2] = molecular target: T1, FLAG-SUP-12; experiment: EMSA; similar extent to WT; 20 mM HEPES-KOH pH 7.9, 150 mM KCl, 5% glycerol (EMSA only), 1% Triton X-100, 1 mM DTT, 0.1 mM PMSF, 100 ng/ul E. coli tRNA, 50 ng/ul BSA, 30 min, 20 C; details: protein: recombinant; tags: FLAG; label: 32P (alpha-32P UTP, internal)

Row | Binder | binding result (FLAG-SUP-12 [1]) | binding result (FLAG-SUP-12 [2])
1 | GGGAGACUAACCUAACCUAACCUAUGUGUGCCUGUUUUCUAG (ssRNA) [unc-60 intron 1A WT EMSA probe] | binds | 
2 | GGGAGACAAACCAAACCAAACCUAUGUGUGCCUGUUUUCUAG (ssRNA) [unc-60 intron 1A M1 EMSA probe] |  | binds
